From IntAct's records for PubMed 17934474

These substances were tested against brr2_yeast BRR2 (UniProt P32639).
Sequence of brr2_yeast BRR2 (P32639 whole entry): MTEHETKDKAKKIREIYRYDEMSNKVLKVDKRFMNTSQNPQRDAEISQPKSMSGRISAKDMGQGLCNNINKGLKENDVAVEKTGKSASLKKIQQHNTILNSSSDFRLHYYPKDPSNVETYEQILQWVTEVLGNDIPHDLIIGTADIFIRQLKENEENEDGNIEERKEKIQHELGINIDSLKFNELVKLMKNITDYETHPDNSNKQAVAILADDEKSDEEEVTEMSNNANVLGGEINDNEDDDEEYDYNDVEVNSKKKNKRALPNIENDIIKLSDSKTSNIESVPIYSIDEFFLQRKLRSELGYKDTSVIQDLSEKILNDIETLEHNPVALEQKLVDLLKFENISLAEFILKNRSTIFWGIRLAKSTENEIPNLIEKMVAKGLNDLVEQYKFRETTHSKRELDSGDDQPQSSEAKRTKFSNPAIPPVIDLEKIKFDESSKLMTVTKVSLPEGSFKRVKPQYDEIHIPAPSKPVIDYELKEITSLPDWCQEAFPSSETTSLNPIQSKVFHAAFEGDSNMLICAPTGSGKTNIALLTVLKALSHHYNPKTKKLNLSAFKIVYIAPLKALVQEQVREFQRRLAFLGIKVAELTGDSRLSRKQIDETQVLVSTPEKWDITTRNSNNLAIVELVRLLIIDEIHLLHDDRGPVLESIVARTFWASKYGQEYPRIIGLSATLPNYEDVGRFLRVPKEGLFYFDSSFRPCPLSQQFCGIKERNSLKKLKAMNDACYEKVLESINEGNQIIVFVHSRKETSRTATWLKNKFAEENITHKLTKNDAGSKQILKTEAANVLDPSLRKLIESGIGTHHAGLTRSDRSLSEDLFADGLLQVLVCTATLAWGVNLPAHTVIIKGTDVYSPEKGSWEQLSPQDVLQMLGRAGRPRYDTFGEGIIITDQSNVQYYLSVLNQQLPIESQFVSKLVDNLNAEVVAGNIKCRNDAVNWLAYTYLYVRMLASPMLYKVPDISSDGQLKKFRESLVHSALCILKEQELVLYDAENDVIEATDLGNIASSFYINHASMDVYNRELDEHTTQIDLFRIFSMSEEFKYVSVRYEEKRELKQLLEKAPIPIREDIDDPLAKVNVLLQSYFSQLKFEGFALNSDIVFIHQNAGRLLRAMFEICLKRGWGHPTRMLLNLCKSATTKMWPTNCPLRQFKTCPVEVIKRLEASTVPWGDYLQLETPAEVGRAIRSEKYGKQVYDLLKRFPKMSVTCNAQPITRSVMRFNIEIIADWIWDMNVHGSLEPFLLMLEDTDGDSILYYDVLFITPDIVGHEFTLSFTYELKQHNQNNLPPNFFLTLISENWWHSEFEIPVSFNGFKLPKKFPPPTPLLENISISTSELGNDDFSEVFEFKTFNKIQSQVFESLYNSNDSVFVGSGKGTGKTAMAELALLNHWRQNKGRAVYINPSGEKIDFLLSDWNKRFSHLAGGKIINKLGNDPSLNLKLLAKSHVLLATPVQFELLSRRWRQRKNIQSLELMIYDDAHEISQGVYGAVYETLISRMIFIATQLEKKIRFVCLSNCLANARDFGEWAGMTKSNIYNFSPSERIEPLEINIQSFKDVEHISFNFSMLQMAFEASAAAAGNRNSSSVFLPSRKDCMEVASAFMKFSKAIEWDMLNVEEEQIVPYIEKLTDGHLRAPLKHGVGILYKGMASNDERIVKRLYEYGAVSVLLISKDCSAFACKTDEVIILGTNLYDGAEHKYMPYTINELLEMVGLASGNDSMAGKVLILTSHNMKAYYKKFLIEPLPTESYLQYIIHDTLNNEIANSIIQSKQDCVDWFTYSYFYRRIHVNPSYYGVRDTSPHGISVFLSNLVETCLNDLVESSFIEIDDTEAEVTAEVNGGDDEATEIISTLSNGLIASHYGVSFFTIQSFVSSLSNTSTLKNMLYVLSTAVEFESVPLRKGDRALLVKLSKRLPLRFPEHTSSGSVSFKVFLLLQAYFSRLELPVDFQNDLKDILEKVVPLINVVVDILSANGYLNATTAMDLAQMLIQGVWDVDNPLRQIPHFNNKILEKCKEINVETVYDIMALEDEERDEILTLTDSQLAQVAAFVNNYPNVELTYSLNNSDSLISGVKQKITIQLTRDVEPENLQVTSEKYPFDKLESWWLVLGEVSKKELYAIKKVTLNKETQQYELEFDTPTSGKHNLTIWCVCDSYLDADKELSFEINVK

Sequence of Pre-mRNA-splicing factor 8 (Saccharomyces cerevisiae), P33334 H2387P (P33334 whole entry H2387P): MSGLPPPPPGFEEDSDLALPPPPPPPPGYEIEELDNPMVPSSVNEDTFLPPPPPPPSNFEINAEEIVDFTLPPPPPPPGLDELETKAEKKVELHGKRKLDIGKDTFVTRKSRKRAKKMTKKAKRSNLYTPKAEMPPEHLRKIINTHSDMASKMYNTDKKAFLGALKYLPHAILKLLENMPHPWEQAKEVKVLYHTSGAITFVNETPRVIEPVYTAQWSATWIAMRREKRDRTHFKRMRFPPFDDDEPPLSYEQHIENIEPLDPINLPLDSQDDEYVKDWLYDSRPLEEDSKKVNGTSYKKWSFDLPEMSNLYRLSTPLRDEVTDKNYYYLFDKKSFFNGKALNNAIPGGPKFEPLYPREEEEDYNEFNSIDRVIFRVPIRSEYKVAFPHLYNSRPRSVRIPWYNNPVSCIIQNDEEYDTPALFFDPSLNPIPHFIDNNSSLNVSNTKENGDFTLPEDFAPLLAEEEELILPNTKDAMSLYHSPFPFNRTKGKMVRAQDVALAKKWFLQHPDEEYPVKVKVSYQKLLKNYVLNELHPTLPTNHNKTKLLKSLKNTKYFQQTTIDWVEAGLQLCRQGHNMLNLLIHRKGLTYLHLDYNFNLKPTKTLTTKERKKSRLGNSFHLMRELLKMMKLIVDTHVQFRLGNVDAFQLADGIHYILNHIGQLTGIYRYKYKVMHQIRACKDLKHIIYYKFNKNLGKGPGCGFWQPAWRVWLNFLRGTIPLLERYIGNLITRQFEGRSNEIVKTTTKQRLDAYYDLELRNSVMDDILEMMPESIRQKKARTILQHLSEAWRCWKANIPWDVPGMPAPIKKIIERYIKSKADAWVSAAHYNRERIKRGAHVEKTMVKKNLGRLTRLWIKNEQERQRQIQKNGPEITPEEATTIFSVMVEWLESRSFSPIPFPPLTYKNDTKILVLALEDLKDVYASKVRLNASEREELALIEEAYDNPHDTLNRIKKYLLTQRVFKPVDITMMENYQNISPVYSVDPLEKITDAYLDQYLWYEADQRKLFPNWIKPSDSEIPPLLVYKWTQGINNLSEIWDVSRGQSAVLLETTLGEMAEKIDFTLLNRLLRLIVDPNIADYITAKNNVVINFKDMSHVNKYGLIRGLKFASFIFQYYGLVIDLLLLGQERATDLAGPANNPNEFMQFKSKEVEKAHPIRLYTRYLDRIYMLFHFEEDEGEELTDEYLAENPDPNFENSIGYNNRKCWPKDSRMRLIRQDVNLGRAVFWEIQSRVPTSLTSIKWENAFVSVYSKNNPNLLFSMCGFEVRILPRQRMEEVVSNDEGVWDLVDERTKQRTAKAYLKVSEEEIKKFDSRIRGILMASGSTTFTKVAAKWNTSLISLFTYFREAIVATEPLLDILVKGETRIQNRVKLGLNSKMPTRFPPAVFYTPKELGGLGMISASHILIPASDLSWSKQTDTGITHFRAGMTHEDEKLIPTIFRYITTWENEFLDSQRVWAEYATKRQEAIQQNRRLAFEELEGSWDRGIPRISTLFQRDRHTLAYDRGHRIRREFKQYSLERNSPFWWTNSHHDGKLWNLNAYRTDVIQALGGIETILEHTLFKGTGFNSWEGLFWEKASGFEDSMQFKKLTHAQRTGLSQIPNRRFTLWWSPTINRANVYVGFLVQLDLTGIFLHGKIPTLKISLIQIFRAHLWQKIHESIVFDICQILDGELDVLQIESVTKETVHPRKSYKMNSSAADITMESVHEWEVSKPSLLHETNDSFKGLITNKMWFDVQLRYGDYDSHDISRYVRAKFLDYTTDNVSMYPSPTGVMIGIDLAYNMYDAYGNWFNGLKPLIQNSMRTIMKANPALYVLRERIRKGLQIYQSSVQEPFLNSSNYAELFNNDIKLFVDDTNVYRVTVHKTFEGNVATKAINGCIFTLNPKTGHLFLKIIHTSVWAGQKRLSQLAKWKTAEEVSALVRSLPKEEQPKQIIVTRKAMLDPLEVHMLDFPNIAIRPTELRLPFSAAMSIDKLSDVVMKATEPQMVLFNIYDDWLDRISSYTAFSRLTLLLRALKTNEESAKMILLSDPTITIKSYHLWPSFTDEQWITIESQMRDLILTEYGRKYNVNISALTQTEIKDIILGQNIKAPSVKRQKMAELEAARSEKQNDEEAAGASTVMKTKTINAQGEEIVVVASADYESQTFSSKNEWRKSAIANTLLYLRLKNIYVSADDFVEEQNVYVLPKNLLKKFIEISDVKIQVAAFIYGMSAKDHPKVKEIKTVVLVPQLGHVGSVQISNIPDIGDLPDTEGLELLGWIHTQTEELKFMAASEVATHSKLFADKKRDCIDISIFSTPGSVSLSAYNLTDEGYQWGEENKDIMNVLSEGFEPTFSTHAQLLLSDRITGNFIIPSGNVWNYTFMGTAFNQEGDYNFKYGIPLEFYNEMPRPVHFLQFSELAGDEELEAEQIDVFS

Row | Substance | effect of a mutation on the interaction
1 | Pre-mRNA-splicing factor 8 (Saccharomyces cerevisiae), P33334 H2387P | disrupting interaction
2 | Pre-mRNA-splicing factor 8 (Saccharomyces cerevisiae), P33334 H2387R | disrupting interaction
3 | Pre-mRNA-splicing factor 8 (Saccharomyces cerevisiae), P33334 P2379T | decreasing interaction
4 | Pre-mRNA-splicing factor 8 (Saccharomyces cerevisiae), P33334 R2388K | disrupting interaction

Continued, values first:

Row | effect of a mutation on the interaction | Substance
5 | decreasing interaction | Pre-mRNA-splicing factor 8 (Saccharomyces cerevisiae), P33334 F2382L
6 | disrupting interaction | Pre-mRNA-splicing factor 8 (Saccharomyces cerevisiae), P33334 F2392L
7 | disrupting interaction | Pre-mRNA-splicing factor 8 (Saccharomyces cerevisiae), P33334 R2388G
